Measured values: US20250152743A1, “SYNPOPTOSIS CIRCUITS FOR PROGRAMMABLE CELL DEATH CONTROL” (California Institute of Technology, priority 2023, published 2025)

What was measured:
Type in all cases: cell-based, human
[1] = system: HEK cells; experiment: Transient DNA transfection of HEK cells, Annexin/Sytox staining, flow cytometry
Experimental: HEK cells were transiently co-transfected with DNA encoding the circuits, often along with Cherry, a fluorescent protein marker, and cells were analyzed by flow cytometry 16 to 24 hours later. To quantify cell death, the cells were strained with Annexin, Sytox, or both. Annexin stains apoptotic cells by binding to phosphatidylserine exposed on the outer leaflet, and pyroptotic cells by binding to phosphatidylserine in the inner leaflet after membrane permeabilization. In contrast, Sytox, a membrane-impermeable dye, primarily stains pyroptotic cells. Therefore, apoptotic cells are typically Annexin-high and Sytox-low, while pyroptotic cells are Annexin-high and Sytox-high (FIG. 7B). For simplicity, in experiments involving only a single death mode, a single relevant dye was often used. To focus on cells influenced by the circuits, the fraction of Annexin- or Sytox-positive cells was calculated after gating on the fluorescent co-transfection marker (FIG. 7C).
On the day before transfection, HEK cells were seeded at a density of 0.3-0.6 million cells per well on a 12-well plate, 0.1-0.3 million cells per well on a 24-well plate, or 15,000-50,000 cells per well on a 96-well plate. The cells were allowed to attach to the plate overnight, for at least 8 hours. On the day of transfection, we treated the cells with purified DNA plasmids encoding circuit components. In addition to plasmids encoding circuit components, we often included a plasmid encoding a fluorescent co-transfection marker, at roughly 50 ng DNA per well on a 24-well plate. Given the different number of molecular components in each synthetic circuit and their various relative ratios, the total amount of DNA ranged from 50 to 1 μg per well on a 24-well plate, and was scaled by […] when other 12-well or 96-well plates were used, respectively. On the same plate, we often equalized the total amount of DNA across all transfected wells, using a filler plasmid encoding the neomycin resistance gene. To transfect cells with plasmid DNA, we used three types of transfection reagents—Lipofectamine 2000 (Thermo Fisher), Lipofectamine 3000 (Thermo Fisher), and FuGENE HD (Promega), according to manufacturers' instructions. Briefly, for a typical transfection experiment on a 24-well plate, we mixed plasmids and the transfection reagent, around 200 ng of DNA per 1 μl of Lipofectamine 2000, in 25 μl of Opti-MEM reduced serum medium (Thermo Fisher), incubated the mixture for 5-10 min at room temperature, and then added another 25 μl of Opti-MEM before transferring the mixture dropwise to culture wells. We also performed some transfection experiments using the Lipofectamine 3000 kit (Thermo Fisher), at a ratio of 2,000 ng of DNA, 2 ul of 4 ul of P3000, and 3 μl of Lipofectamine 3000. We similarly diluted the mixture in Opti-MEM before adding it to cells. For transfection with FuGENE, we used a ratio of 4 μl FuGENE:1 μg of DNA, and incubated the DNA-FuGENE mixture at room temperature for 5 min before transfection. To enable protein expression from plasmids with a doxycycline-inducible promoter, doxycycline was added to the cell culture at a final concentration of 100 ng/mL. In experiments involving Q-VD-OPh, the compound was added to the cell culture at a final concentration of 30 μM, immediately after the cells received the transfection mixture. To transfect cells with in vitro transcribed mRNA, Lipofectamine MessengerMax (Thermo Fisher) was used. Briefly, for transfection of one well in a 96-well plate, 0.1 μL of Lipofectamine MessengerMAX was diluted in 1.25 μL Opti-MEM and incubated for 10 minutes at room temperature. mRNA was then added to Opti-MEM to the appropriate conditions at the following amounts: 12.5 ng of fluorescent co-transfection marker, 56.25 ng of protease, and 56.25 ng of engineered executioner. Diluted mRNA was then added to diluted MessengerMAX reagent and incubated for 5 minutes at room temperature before addition to Jurkat or THP-1 cells in RPMI media. […]

[2] = system: HEK293FT cells; experiment: Polytransfection of input proteases and caspase cleavage-site variants, Annexin staining
Text: The cleavage efficiency of proteases is known to depend on corresponding accessible cleavage sites. Mutations to native protease cleavage sites can slow (i) the recruitment of substrates to the protease active site, (ii) catalytic reaction steps, or (iii) the release of the substrate from the protease. As described herein, this property to modulate cell death executioner activation thresholds. Specifically, we surveyed the following constructs with modified protease cleavage sites across a wide range of possible cell death executioner and input protease expression regimes: […]
To evaluate how the mutated protease cleavage sites affect Caspase 3 activation, we polytransfected (i) input proteases (P3/P4-zipper reconstituted TEVP as a positive control, split TEVP without reconstitution domain as a negative control, or NeoR to evaluate caspase baseline activity; all with IRES-BFP to enable expression tracking) and (ii) output caspase (caspase+co-transfected GFP for expression tracking) in HEK293FT cells. Annexin staining as described above in Example 1 was used to quantify cell death.

[3] = system: HEK293FT cells; experiment: Co-transfection time course, cell death every 24 h over 4 days; settings: P3/P4-zipper reconstituted TEVP
Experimental: Moreover, it was evaluated if some of these mutations affect the maximal caspase activation accessible and the time dependency between caspase activation and cell death by co-transfecting (i) input proteases (P3/P4-zipper reconstituted TEVP as a positive control, split TEVP without reconstitution domain as a negative control, or NeoR to evaluate caspase baseline activity; all with IRES-BFP to enable expression tracking) and (ii) output caspase (“ENLYFQS” (SEQ ID NO: 2)/“ENLYFQQ” (SEQ ID NO: 4)/“ENLFFQQ” (SEQ ID NO: 7)+co-transfected GFP for expression tracking) in HEK293FT cells and measuring cell death every 24 h over the course of 4 days.

B1: TEVP-activatable caspase-3: caspase-3 whose cleavage site between large and small subunits was replaced by a TEVP cleavage site; SEQ ID NO: 10 (protein)
chain: MGSENTENSVDSKSIKNLEPKIIHGSESMDSGISLDNSYKMDYPEMGLCIIINNKNFHKSTGMTSRSGTDVDAANLRETFRNLKYEVRNKNDLTREEIVELMRDVSKEDHSKRSSFVCVLLSHGEEGIIFGTNGPVDLKKITNFFRGDRCRSLTGKPKLFIIQACRGTELDCGIETENLYFQSGVDDDMACHKIPVEADFLYAYSTAPGYYSWRNSKDGSWFIQSLCAMLKQYADKLEFMHILTRVNRKVATEFESFSFDATFHAKKQIPCIVSMLTKELYFYH
[1]; co-transfected with TEVP
  Sytox uptake: only modestly took up Sytox
[1]; expressed at high levels indicated by co-transfected Cherry
  cell death without the activating TEVP: induced noticeable cell death even without the activating TEVP
[1]; with TEVP, flow cytometry 16 to 24 hours after DNA transfection
  cell death / apoptosis, Annexin staining: ability of the modified caspase-3 to kill HEK cells when co-transfected with TEVP was verified
[2]
  activation at high caspase expression with non-reconstituted split protease: leaky activation
[2]; order, decreasing: ENLFFQQ, ENLFFQY, ENLYFQS+TEVP-cleavable DHFR, ENLFFQS~ENLYFQY~ENLYFQQ, ENLYFQS, both TEVP and TVMVP cleavage site
  input/output expression required for caspase activation (activation threshold): in decreasing order
[3]
  maximal caspase activation / maximal fraction of dead cells: comparable maximal fraction of dead cells
